Test results published in patent US10064928B2, “Peptides and combination of peptides for use in immunotherapy against CLL and other cancers” (IMMATICS BIOTECHNOLOGIES GMBH, priority 2015, dated 2018).

biological target: HLA-A*02:01 (Homo sapiens, UniProt P04439, D140Y/D185E/D98H/E176V/E277Q/G131W/G231S/I119V/I121R/I166T/I218V/L300P/L318F/N151K/N90K/P208A/P217A/Q86G/Q94H/R138H/R169H/T345S); assay: MHC binding assay (UV-ligand exchange, beta2m ELISA); conditions: binding of HLA-class I restricted peptides to HLA-A*02:01, β2m ELISA
Text: Candidate peptides for T cell based therapies according to the present invention were further tested for their MHC binding capacity (affinity). The individual peptide-MHC complexes were produced by UV-ligand exchange, where a UV-sensitive peptide is cleaved upon UV-irradiation, and exchanged with the peptide of interest as analyzed. Only peptide candidates that can effectively bind and stabilize the peptide-receptive MHC molecules prevent dissociation of the MHC complexes. To determine the yield of the exchange reaction, an ELISA was performed based on the detection of the light chain (β2m) of stabilized MHC complexes. The assay was performed as generally described in Rodenko et al. (Rodenko et al., 2006).
96 well MAXISorp plates (NUNC) were coated over night with 2 ug/ml streptavidin in PBS at room temperature, washed 4× and blocked for 1 h at 37° C. in 2% BSA containing blocking buffer. Refolded HLA-A*02:01/MLA-001 monomers served as standards, covering the range of 15-500 ng/ml. Peptide-MHC monomers of the UV-exchange reaction were diluted 100 fold in blocking buffer. Samples were incubated for 1 h at 37° C., washed four times, incubated with 2 ug/ml HRP conjugated anti-β2m for 1 h at 37° C., washed again and detected with TMB solution that is stopped with […]. Absorption was measured at 450 nm. Candidate peptides that show a high exchange yield (preferably higher than 50%, most preferred higher than 75%) are generally preferred for a generation and production of antibodies or fragments thereof, and/or T cell receptors or fragments thereof, as they show sufficient avidity to the MHC molecules and prevent dissociation of the MHC complexes.

Row | Peptide Exchange (MHC class I binding score, peptide exchange yield) | Substance
1 | “+++” (≥50 = +++) | 64 (KLLESVASA; listed as Homo sapiens) [compound 64]
2 | “++” (≥20% = ++) | 65 (GLDDMKANL; listed as Homo sapiens) [compound 65]
3 | “+++” (≥50 = +++) | 66 (SLAGGLDDMKA; listed as Homo sapiens) [compound 66]
4 | “++” (≥20% = ++) | 67 (GLDDVTVEV; listed as Homo sapiens) [compound 67]
5 | “+” (≥10% = +) | 68 (GLDQQFAGLDL; listed as Homo sapiens) [compound 68]
6 | “+++” (≥50 = +++) | 70 (FVPDTPVGV; listed as Homo sapiens) [compound 70]
7 | “+++” (≥50 = +++) | 71 (GLKHDIARV; listed as Homo sapiens) [compound 71]
8 | “+++” (≥50 = +++) | 72 (GLLDAGKMYV; listed as Homo sapiens) [compound 72]
9 | “+++” (≥50 = +++) | 73 (GLLEVISALQL; listed as Homo sapiens) [compound 73]
10 | “++” (≥20% = ++) | 74 (GLLRASFLL; listed as Homo sapiens) [compound 74]
11 | “++” (≥20% = ++) | 75 (GLSIFAQDLRL; listed as Homo sapiens) [compound 75]
12 | “+++” (≥50 = +++) | 76 (GLLRIIPYL; listed as Homo sapiens) [compound 76]
13 | “+++” (≥50 = +++) | 78 (GLPSFLTEV; listed as Homo sapiens) [compound 78]
14 | “+++” (≥50 = +++) | 79 (GLQAKIQEA; listed as Homo sapiens) [compound 79]
15 | “++” (≥20% = ++) | 80 (VLIEDELEEL; listed as Homo sapiens) [compound 80]
16 | “+++” (≥50 = +++) | 82 (GLQSGVDIGV; listed as Homo sapiens) [compound 82]
17 | “+++” (≥50 = +++) | 83 (GQGEVLVYV; listed as Homo sapiens) [compound 83]
18 | “++” (≥20% = ++) | 84 (GVMDVNTAL; listed as Homo sapiens) [compound 84]
19 | “++++” (≥75% = ++++) | 85 (HLMLHTAAL; listed as Homo sapiens) [compound 85]

Row | Peptide Exchange (MHC class I binding score, peptide exchange yield) | Substance
20 | “++” (≥20% = ++) | 87 (HQIEAVDGEEL; listed as Homo sapiens) [compound 87]
21 | “+++” (≥50 = +++) | 88 (ILDEIGADVQA; listed as Homo sapiens) [compound 88]
22 | “+++” (≥50 = +++) | 89 (ILDFGTFQL; listed as Homo sapiens) [compound 89]
23 | “+++” (≥50 = +++) | 90 (VIADLGLIRV; listed as Homo sapiens) [compound 90]
24 | “+++” (≥50 = +++) | 91 (ILDLNTYNV; listed as Homo sapiens) [compound 91]
25 | “+++” (≥50 = +++) | 92 (ILEPLNPLL; listed as Homo sapiens) [compound 92]
26 | “+++” (≥50 = +++) | 93 (ILFNTQINI; listed as Homo sapiens) [compound 93]
27 | “+++” (≥50 = +++) | 94 (ILFPLRFTL; listed as Homo sapiens) [compound 94]
28 | “++” (≥20% = ++) | 95 (ILGYMAHEHKV; listed as Homo sapiens) [compound 95]
29 | “++” (≥20% = ++) | 97 (LLFATQITL; listed as Homo sapiens) [compound 97]
30 | “+” (≥10% = +) | 98 (SLIKYFLFV; listed as Homo sapiens) [compound 98]
31 | “+++” (≥50 = +++) | 99 (ILIFHSVAL; listed as Homo sapiens) [compound 99]
32 | “++” (≥20% = ++) | 103 (KLGGTPAPA; listed as Homo sapiens) [compound 103]
33 | “+++” (≥50 = +++) | 104 (KLILLDTPLFL; listed as Homo sapiens) [compound 104]
34 | “++” (≥20% = ++) | 105 (KLMNDIADI; listed as Homo sapiens) [compound 105]
35 | “+++” (≥50 = +++) | 106 (FMASHLDYL; listed as Homo sapiens) [compound 106]
36 | “+++” (≥50 = +++) | 107 (ILYNLYDLL; listed as Homo sapiens) [compound 107]
37 | “+++” (≥50 = +++) | 108 (VIYTLIHYI; listed as Homo sapiens) [compound 108]
38 | “+++” (≥50 = +++) | 109 (KLWEGLTELV; listed as Homo sapiens) [compound 109]

Row | Peptide Exchange (MHC class I binding score, peptide exchange yield) | Substance
39 | “+++” (≥50 = +++) | 110 (LLFDHLEPMEL; listed as Homo sapiens) [compound 110]
40 | “+++” (≥50 = +++) | 111 (KLWNVAAPLYL; listed as Homo sapiens) [compound 111]
41 | “+++” (≥50 = +++) | 113 (KVPAEEVLVAV; listed as Homo sapiens) [compound 113]
42 | “+++” (≥50 = +++) | 115 (LLFDKLYLL; listed as Homo sapiens) [compound 115]
43 | “+++” (≥50 = +++) | 116 (LLIGATMQV; listed as Homo sapiens) [compound 116]
44 | “+++” (≥50 = +++) | 117 (LLILENILL; listed as Homo sapiens) [compound 117]
45 | “+++” (≥50 = +++) | 118 (RLLILENILL; listed as Homo sapiens) [compound 118]
46 | “+++” (≥50 = +++) | 119 (VLPAEFFEV; listed as Homo sapiens) [compound 119]
47 | “+++” (≥50 = +++) | 120 (AIDAALTSV; listed as Homo sapiens) [compound 120]
48 | “++++” (≥75% = ++++) | 121 (RLYEITIEV; listed as Homo sapiens) [compound 121]
49 | “+++” (≥50 = +++) | 122 (LLIPVVPGV; listed as Homo sapiens) [compound 122]
50 | “++” (≥20% = ++) | 123 (LLLAEAELLTL; listed as Homo sapiens) [compound 123]
51 | “+++” (≥50 = +++) | 124 (LLLEETEKQAV; listed as Homo sapiens) [compound 124]
52 | “+++” (≥50 = +++) | 125 (LLLEIGEVGKLFV; listed as Homo sapiens) [compound 125]
53 | “+++” (≥50 = +++) | 126 (LLPEGGITAI; listed as Homo sapiens) [compound 126]
54 | “+++” (≥50 = +++) | 127 (LLPTAPTTV; listed as Homo sapiens) [compound 127]
55 | “+++” (≥50 = +++) | 128 (LLSEEEYHL; listed as Homo sapiens) [compound 128]
56 | “+” (≥10% = +) | 130 (LLVLIPVYL; listed as Homo sapiens) [compound 130]
